The values that follow come from publication PMC4811204 (Nature structural & molecular biology, 2013).

Where no end group is shown, it is not given here. [ ]: non-standard residue; d: D form. pS = N[C@@H](COP(=O)(O)O)C(=O)O

The chains are these.
B1: GST-tagged CNOT1(800–1015) (domain or fragment, human, UniProt A5YKK6-2 800-1015, looked up)
chain: NNDPFVQRKLGTSGLNQPTFQQTDLSQVWPEANQHFSKEIDDEANSYFQRIYNHPPHPTMSVDEVLEMLQRFKDSTIKREREVFNCMLRNLFEEYRFFPQYPDKELHITACLFGGIIEKGLVTYMALGLALRYVLEALRKPFGSKMYYFGIAALDRFKNRLKDYPQYCQHLASISHFMQFPHHLQEYIEYGQQSRDPPVKMQGSITTPGSIALAQA
B3: MBP-fused full-length human Tristetraprolin (TTP) (natural protein, UniProt P26651 1-326, looked up)
chain: MDLTAIYESLLSLSPDVPVPSDHGGTESSPGWGSSGPWSLSPSDSSPSGVTSRLPGRSTSLVEGRSCGWVPPPPGFAPLAPRLGPELSPSPTSPTATSTTPSRYKTELCRTFSESGRCRYGAKCQFAHGLGELRQANRHPKYKTELCHKFYLQGRCPYGSRCHFIHNPSEDLAAPGHPPVLRQSISFSGLPSGRRTSPPPPGLAGPSLSSSSFSPSSSPPPPGDLPLSPSAFSAAPGTPLARRDPTPVCCPSCRRATPISVWGPLGGLVRTPSVQSLGSDPDEYASSGSSLGGSDSPVFEAGVFAPPQPVAAPRRLPIFNRISVSE

Test [1] deals with T1, MBP-TTP lacking amino acids 179–192 (TTP-MUT1) (human, UniProt P26651 1-326, lacking amino acids 179–192).
T1 sequence (looked up): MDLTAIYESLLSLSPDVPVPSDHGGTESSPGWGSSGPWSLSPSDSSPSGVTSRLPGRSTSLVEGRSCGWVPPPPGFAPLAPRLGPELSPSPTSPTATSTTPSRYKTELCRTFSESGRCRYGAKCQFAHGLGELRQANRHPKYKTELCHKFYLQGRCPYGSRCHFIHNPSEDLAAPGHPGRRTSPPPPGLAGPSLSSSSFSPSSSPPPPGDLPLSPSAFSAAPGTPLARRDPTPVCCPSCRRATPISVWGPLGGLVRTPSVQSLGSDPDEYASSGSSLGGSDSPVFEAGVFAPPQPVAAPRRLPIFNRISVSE
Kind of test: pull-down.

Test [2] deals with B3. Kind of test: pull-down.
The target of test [3] is CNOT1(800–999), TTP-interacting fragment of CNOT1 (human, UniProt A5YKK6-2 800-999). Briefly: ITC.
The target of test [4] is B1. Kind of test: pull-down.
For test [5], the target named is GST-fused CNOT1 fragment, residues 727–1266 (human, UniProt A5YKK6-2 727-1266). Kind of test: pull-down.

For B1, the binding result in test [1] and in test [2] was “binds” in each case.
As a reminder, the Kd is the equilibrium constant for the complex coming apart. Consider APRRLPIFNRI[pS]VSE [TTP-CIM peptide 312–326 containing phospho-Ser323], for which the Kd in test [3] is ~0.625 mM.

B2: MBP-tagged TTP-CTD with Asn320 mutated to alanine (domain or fragment, human, UniProt P26651 174-326, looked up)
chain: APGHPPVLRQSISFSGLPSGRRTSPPPPGLAGPSLSSSSFSPSSSPPPPGDLPLSPSAFSAAPGTPLARRDPTPVCCPSCRRATPISVWGPLGGLVRTPSVQSLGSDPDEYASSGSSLGGSDSPVFEAGVFAPPQPVAAPRRLPIFARISVSE
In the case of B2, the binding result in test [4] was “binds”.
APRRLPIANRISVSE [TTP peptide 312–326, Phe319Ala mutant]: the equilibrium dissociation constant (Kd) in test [3] was ~7 mM.
As to B3, the binding result in test [5] is on record as “binds”.
